Test results: publication PMC9428257 (2022)

What was measured:
Assay in all cases: FACS
[1] = target: yeast-displayed mutant sBCMA V2 (V3 without N53D) (human, UniProt Q02223 1-54, S16G | H19Y | T36A)
Clone V5 = target: Clone V5
Clone V8 = target: Clone V8

B1: human APRIL (a proliferation-inducing ligand) (ligand)
chain: AVLTQKQKKQHSVLHLVPINATSKDDSDVTEVMWQPALRRGRGLQAQGYGVRIQDAGVYLLYSQVLFQDVTFTMGQVVSREGQGRQETLFRCIRSMPSHPDRAYNSCYSAGVFHLHQGDILSVIIPRARAKLNLSPHGTFLGFVKL
- Kd [1]: 0.018 nM
- Kd (Clone V5): 7 pM
- Kd (Clone V8): 0.054 nM
